Test results reported in the DeepSol protein solubility set.

Test: soluble on expression in E. coli; label from the status in PepcDB or PDB records
In the case of “MGSDKIHHHHHHMMGMKETVSNIVTSQAEKGGVKHVYYVACGGSYAAFYPAKAFLEKEAKALTVGLYNSGEFINNPPVALGENAVVVVASHKGNTPETIKAAEIARQHGAPVIGLTWIMDSPLVAHCDYVETYTFGDGKDIAGEKTMKGLLSAVELLQQTEGYAHYDDFQDGVSKINRIVWRACEQVAERAQAFAQEYKDDKVIYTVASGAGYGAAYLQSICIFMEMQWIHSACIHSGEFFHGPFEITDANTPFFFQFSEGNTRAVDERALNFLKKYGRRIEVVDAKELGLSTIKTTVIDYFNHSLFNNVYPVYNRALAEARQHPLTTRRYMWKVEY”, the “soluble on expression in E. coli” value was “not soluble”.
In the case of “MSLASSLHVLLEKIIKIGDLTVNSPGGSRTFGDGTGKKVVLNFTDEAAMQEIAADPALKLAEMYMEGRAKVAKGDIYDFLALVKGNTLSEALSFGMIWRGMARIIAARIKMRLPVNHNKSNVAHHYDLSAKLFDLFLDEDWQYSCAYFNPPDIGLYEAQVAKKRHIAAKLMTEPGQSVLEIGSGWGGMAMYIAESAGADVTGITLSEEQLRVSRDRAAKRGLAGNVRFELQDYRYLPASKKYDRIVSVGMFEHVGPTHYRDYFDKVAEVLDDKGVMVLHSIGQPYPALATNPFIEKYIFPGGYIPSLAEVLPAIQKSGLLVKDIEILPMHYAHTLRHWRERFVARKAEAVALYDERFFRMWEFYLAGSEMAFTHENFHIFQIQLAKDRDAVPHNRDYIAQNEAKLLEFEKTRPPLEKVSEGHHHHHH”, the “soluble on expression in E. coli” value was “soluble”.
With “MGAIAPSSNILAKAMVDAIDFEVAKCIVELGPGTGSFTKEIMKRKKKRTTFILIEINEVFFKKLQKQYEDDASVVVIHGSAENIQRYVEELQIKGVDYVLSGLPFTSLPKEESSRILNNVMESLRENGRFITFQYSLVKKGFIEDFFPDIQLKKVWFNFPPAYVFSCKKSLEHHHHHH” the “soluble on expression in E. coli” value was “soluble”.
With “QINPAARKELVIENDIETMHPVFKGFKDKLVPHLRMAAQGATLTGVNVPIGDKVFRWNLSPIRVDGDISGIIVQGQDITTLIEAEKQSNLARREAEKSAQARADFLAKMSHEIRTPINGILGVAQLLKDSVEAEEQKNQIDVLRHSGEHLLAVLNDILDFSKIEQGKFNIQKHPFSFADTMRTLENIYRPICENKGVELVIENQLDGNVEIFTDQVRLNQILFNLVSNAVKFTPSGCVRLHAELEQFYGADNSVLVVEISDTGIGIESDKLDEMFEPFVQEEATTTR” the “soluble on expression in E. coli” value was “not soluble”.
With “MAAAAAAAGGAALAVSTGLETATLQKLALRRKKVLGAEEMELYELAQAAGAAIDPDVFKILVDLLNLNVAPLAVFQMLKSMCAGQRLASDPQDSVPISLSTSTSETRGRNRGGPILGNVTISAERGSRERPIQRMPRQPSATRLPKVGGSGKSNSRSSP” the “soluble on expression in E. coli” value was “soluble”.
In the case of “MSLAEKICITEIDKLSQKLLRIETELNANIPTTLWISDLHGEGDRFKSILRGRFGMLYQTCKEGLPATFTPEKIQYLAKIVRKKNYFADSQQQMDRQDVILCFVQILKYKLTNSTNRNREIFLPEFRETIGRLLAGLPVPDPIFEESIISDRLIFHLSYAIRQVLLDRIQVLGDVFDRGSQPDKIIRILSSPAYKEMVDYVFGNHDILWMGAAAGTPSLVAETLRITCRYDHFRLLNRLRFDTSRLAEFAERTYEIKKATGKFKAKTDRGRAMEKALTVIQFKLEEKLINDFPHYGMEKRLWLERLAEMLKTGATEELNDSDFPTIDLENPSKLSKEESEIINDLIEQFRSNKYLKRLLKFFFEEGSTYHISNNFLNIHALVPSTKEGEFEEFMGHKGKDLLDYIQKVIRRTGQNYLYNREQSADDLALFFYLWCGPKSPFFGKHAMKTFERYFLLDKERHAEHSLYWQKNMQSDAFKEKMQEEFGIQRVIFGHTPVNYMQGNKMASEDGVAINVDGGFAAAYYNRGHALVHTPHQLYGIILPTPDELIKAAVRLEPAPLDIEFIDEFPQPLKIKNTIAGKLLQQERDLIMGKIQSYNSEGHHHHHH”, the “soluble on expression in E. coli” value was “soluble”.
With “MKKLTKGLGILLASSLVLGLAACGGGSDDKALSTEKITIGTTAGPHQQIAEEVQKLAKKDGLEIKIKTFDDYNTPNTALNDGDLDANNYQTIPFLEQQKKDKGYKLDVAFKTVAFPMGIYSNDIKDLKNLKKGDKIAVPNDPSNEYRGLKLFEDAGVIKLKDGVEEKATKKDIAENPLDLEIVELEASQIPAQLDEVAAAAINTNFAMGAGLSINKDAIYHEPTKDNPYPNVFVVRSANKDDEVVKTLEKYYHSDEVKAFIEKEFNGSVVPAFLEHHHHHH” the “soluble on expression in E. coli” value was “soluble”.
For “MGSDKIHHHHHHMNKIAPAEIASMLNDWYLAIKKHEVEESSRLFEEVKPLLDDMEEDQEVLAYFSLLELRHKVLLHEARGQGFQHEEPSHMNATSDMLKYYFFLFEGMYEAYKNNYDIAIGLYKDAEQYLDNIPDPIEKAEFHLKVGKLYYKLGQNIVSLNHTRQAVKTFREETDYKKKLASALITMSGNFTEMSQFEEAEAYLDEAIRITSELEDHFFEAQLLHNFGLLHAQSGKSEEAVSKLEEALQNDEYARSAYYYHSAYLLIRELFKIKKKEQALSYYQDVKEKLTAEPNRICEAKIDILYAIYAEGGHAETFHLCKQHMDDLLSEKEYDSVRELSILAGERYRELELYKEAAHFFYEALQIEELIKRTEVI”, the “soluble on expression in E. coli” value was “not soluble”.
With “MNSPLDVKDLIDLGRDPVVVFNPPSIGTPDRIERYHAALEWLIGRERPFVLVTRADGDEASESHEDRKSRAVWFKNNLMALAQVCRGFVYVEQDEARRAAWQVRAEGMAKTFPVPMIIAGDMEAAITQALDLVKASRDPAPGGSPHA” the “soluble on expression in E. coli” value was “not soluble”.
For “MGSDKIHHHHHHMRIAYLSSAYLAPVEYYTKLLEYDKIYVEQHDHYIKQTYRNRCTIAGPDGELALSIPTVKPDTLKCPMKDIRISDHGNWRHLHWNAIESAYNSTPYFEYYKDDFRPFYEKKYEFLADFNEELCQLVCKLIDIQPCIERTSEYKTEFTTEETDFREIIHPKKDFQIADPEFVPHPYYQVFDSKLGFLPNLSIIDLLFNMGPESLLVLTSK”, the “soluble on expression in E. coli” value was “not soluble”.
In the case of “MARCSVCGAPAVAYIRYQRRYLCRDHYLEFVESKVERAIMRHRLVGKGDRVLAAVSGGKDSSTLLAVLSRLSRRIGFHVVALYIHLGIYEYSEKSREASIRLASQLDVPLIVFDLNEVLGAGIPELAKASKRPPCSVCGMVKRYVINAAAVELGVDAVALGHNADDIAVYNLKSFLNQDLEAISKLGVKTESIPGVAVGRVRPLYYVYEKESFLYSLLAGLPFLHEEC”, the “soluble on expression in E. coli” value was “not soluble”.
For “NRGVTGGFGITQDITERKKVEEALRISNIYNRSLIEASPDPLVTIGQDGKITDVNNSTETVTGYSRDELIGTDFSDYFTEPERAKKGYQHVFLKGFVKDYPLEIQHKDGRVTQVLYNASVYRDESGEVIGVFAAARD”, the “soluble on expression in E. coli” value was “not soluble”.
In the case of “SEPGETIVEAMQREVKEEAGLLCEPVTLLSVEERGASWIRFVFLARPTGGVLKTSKDADSESLQAGWYPRVSLPTPLRAHDVLHLVELGAKFCQQAMHPLILPQELPCSVVCQRLVTTFTTVQSVWVLVGTVGTPHLPITACGFTPMEQRGGIKVAILRLLQECLTLHSLAVETKGLLGLQHLGRDHVDGVCLNVLVTVAFRNPGIQDEPPKIRGENYFWWKVLEEDLQKLLLYRLQESSVIPLSR”, the “soluble on expression in E. coli” value was “soluble”.
With “MGSDKIHHHHHHMSIAPFLEAAGWAEATATPLAGDASSRRYTRLSRGAETAVLMQAPVATKADHASFDAFRKIGAHLRGQNLSAPKEYAADPTNGLILMEDLGDQTLARLLKDDAQTAQIAYNATANLLPHLKVHAPPHLAAPDARAMAQMVALTFDQLPDSAILRDTLLEALAEALTTHAPGAPTLSLRDVHAENLLWLPDRDGPARVGLLDFQDALLLPEGYDLASLLDDPRREVPEVWRADLIAAHSAPTRIAVLSLQRNLRILGIFRRLSTTLGKPAYGAFLPRTRTLIARAASDLPPMLAPVTELLDRTAHWTAP” the “soluble on expression in E. coli” value was “not soluble”.
In the case of “MGSDKIHHHHHHMKMSEKKEARVVINDLLAEQYANAFKAKEEGRPVGWSTSVFPQELAEVFDLNVLYPENQAAGVAAKKGSLELCEIAESKGYSIDLCAYARTNFGLLENGGCEALDMPAPDFLLCCNNICNQVIKWYENISRELDIPLIMIDTTFNNEDEVTQSRIDYIKAQFEEAIKQLEIISGKKFDPKKFEEVMKISAENGRLWKYSMSLPADSSPSPMNGFDLFTYMAVIVCARGKKETTEAFKLLIEELEDNMKTGKSSFRGEEKYRIMMEGIPCWPYIGYKMKTLAKFGVNMTGSVYPHAWALQYEVNDLDGMAVAYSTMFNNVNLDRMTKYRVDSLVEGKCDGAFYHMNRSCKLMSLIQYEMQRRAAEETGLPYAGFDGDQADPRAFTNAQFETRIQGLVEVMEERKKLNRGEI”, the “soluble on expression in E. coli” value was “not soluble”.
For “MAHHHHHHMLQRVLARLPGAPACISDPLHMRALLELIGYVEPGDNLNRVAYAGELHYPPQAHAFMAELLAEGRQRDGGDAFDAIRERRAGPGYAIDSATTSEVDDAIGVCVDGATGAKYFVVYVSDATVYCPFDSTLEQLTARRLTTTTYLPEGVFFMLPKPIVEAATLREDRPCRTFNVIFQIDESTGEVKNYSVAVGWLDQLRRITYDQVQEIVNKEEGKEEGDEHDSAAVVAAAHDTDASSSPPLLAGCADSAHPPPAWMTREDKDNLFYILRCARLRLRARLERQQRQQQQHHHGAGGKDCGDEGVPATPPVDFSLPDPLIEVKGTKVLSVTDQVISTQDARLAVAELMIAANEVCSRVAQANHIAMPFRGTRTLSSDHLVAHYYTEPEGVRTLMSLDASHIFLAEAMQSSVRRLSTVTRAIYHHVPLHHAGLDTTFYTHSTSPLRRYADMLVHHQLKTWLWQQRRGGGSSDHTSATSTSAARAAMVAAPQQLIPEHAMASLCTMISAKQERASLLQDNSTRFWILRYLEDLERASANAAAAARGDGDGDTHRKKTYLCLVGETRRVVAAPAYSRFACSSAEMSQLLSLPLTAPSTTSSTVRRPASLQMDAVARWRQETPEFTYVSDVYIPEVQLAHTITHHRDDVLVGAVLECHITRVQPTQGVLELAIERVLPGGDERHYERLWMGGFVSQLDA”, the “soluble on expression in E. coli” value was “not soluble”.
In the case of “MGSDKIHHHHHHMTFDANDVVRRLGARLKMRHLMLLLQIQQHGSLTRVAEHMASSQPAVTNALSELESMFGTPLFERTSRGMRPTALGSVVLERARAMLKDLDHLAREMEAVAAGHAAHLHIGVIPFISGQMLSAALKRLQSRMERRLTVTIHEGTSDQLLLQLKDHSVDLVIGRASSAIDLGQVSFEVLYQQQPRMIASRRLAAKLARTKLDWQKLHALDWILGAPHTPMREQVTDLFLSAGIAPPVPIVESYSSKLIGEMIASSDDAVSIVPADIAEEMVRIAGVAIVPYSLVWTLPPIALFTRAGESHAPTRDLLVQALREICRETYVEVPR”, the “soluble on expression in E. coli” value was “not soluble”.
For “MGSDKIHHHHHHMEQHQVWAYQTKTHSVTLNSVDIPALAADDILVQNQAIGINPVDWKFIKANPINWSNGHVPGVDGAGVIVKVGAKVDSKMLGRRVAYHTSLKRHGSFAEFTVLNTDRVMTLPDNLSFERAAALPCPLLTAWQAFEKIPLTKQREVLIVGFGAVNNLLTQMLNNAGYVVDLVSASLSQALAAKRGVRHLYREPSQVTQKYFAIFDAVNSQNAAALVPSLKANGHIICIQDRIPAPIDPAFTRTISYHEIALGALHDFGDRQDWQILMQQGEALLTLIAQGKMEIAAPDIFRFEQMIEALDHSEQTKLKTVLTLNE”, the “soluble on expression in E. coli” value was “not soluble”.
In the case of “MGSDKIHHHHHHMKTIRIGSGAGYAGDRIEPAVELAQKGDIQYLVFECLAERTIAIGQKQKQQNPEKGYNELLADRMHAVLPLCLEKGIKIITDMGSANPVAAGQRVLEIAKELGADKLKIAIVTGDDVHSVLIAQDSKLDEIGLPISRCGKDILSANAYLGADALVEALRQGADVIIAGRVSDPSLFLSAMMYEFDWAADDWDRLGKGTCLGHLLECAGQITGGYYADPGVKDIPNLDRLGFPIAEITEDGSAVITKVEGSGGCVCVDTCKEQLLYEIHRPDSYITPDVIADFSHVTFTQDGENRVRVQGATGREKTGTLKVSVGYQDGFIGEGEISYAGPGAVARGRLALDIVKGRFALCQLDLQEVRYDLIGVDALHGAQRSQSSEPYEVRARVAARCTSRAQAVKVGNEVETLYTNGPAGGGGVNKSVKEILAMDSTLLSRACVTPAVDYLEIK”, the “soluble on expression in E. coli” value was “not soluble”.
